According to the RNAGym collection of RNA variant scans (doi:10.1021/acssynbio.7b00057):

B1: Pistol ribozyme (parent)
chain: GGGUCGUUGUUCCAUAAUCGCGUGGAUAUGGCACGCAAGUUUCUACCGGGCACCGUAAAUGUCCGACUGGAGCCGUUCGGGCGGCUAUAAACAGACCUCAGGCCCGAAGCGUGGCGGCACCUGCCGCCGGUGGUAAAAAAGAUCGGAAGAGCACACGUCU

Variants of: B1
Experiment: aptazyme ON/OFF ratio, guanine; higher = stronger switching; co-transcriptional cleavage with and without guanine

In order of rising “aptazyme ON/OFF ratio” value:
1. GGGUCGUUAACCUAUAAUCGCGUGGAUAUGGCACGCAAGUUUCUACCGGGCACCGUAAAUGUCCGACUGGAGCCGUUCGGGCGGCUAUAAACAGACCUCAGGCCCGAAGCGUGGCGGCACCUGCCGCCGGUGGUAAAAAAGAUCGGAAGAGCACACGUCU  1.01
2. GGGUCGGACAACUAUAAUCGCGUGGAUAUGGCACGCAAGUUUCUACCGGGCACCGUAAAUGUCCGACUGGAGCCGUUCGGGCGGCUAUAAACAGACCUCAGGCCCGAAGCGUGGCGGCACCUGCCGCCGGUGGUAAAAAAGAUCGGAAGAGCACACGUCU  1.04
3. GGGUCGUCCGCUCAUAAUCGCGUGGAUAUGGCACGCAAGUUUCUACCGGGCACCGUAAAUGUCCGACUGGAGCCGUUCGGGCGGCUAUAAACAGACCUCAGGCCCGAAGCGUGGCGGCACCUGCCGCCGGUGGUAAAAAAGAUCGGAAGAGCACACGUCU  1.05
4. GGGUCGCAGGACCAUAAUCGCGUGGAUAUGGCACGCAAGUUUCUACCGGGCACCGUAAAUGUCCGACUGGAGCCGUUCGGGCGGCUAUAAACAGACCUCAGGCCCGAAGCGUGGCGGCACCUGCCGCCGGUGGUAAAAAAGAUCGGAAGAGCACACGUCU  1.06
5. GGGUCGAAUUGCGAUAAUCGCGUGGAUAUGGCACGCAAGUUUCUACCGGGCACCGUAAAUGUCCGACUGGAGCCGUUCGGGCGGCUAUAAACAGACCUCAGGCCCGAAGCGUGGCGGCACCUGCCGCCGGUGGUAAAAAAGAUCGGAAGAGCACACGUCU  1.08
6. GGGUCGCUUCCAGAUAAUCGCGUGGAUAUGGCACGCAAGUUUCUACCGGGCACCGUAAAUGUCCGACUGGAGCCGUUCGGGCGGCUAUAAACAGACCUCAGGCCCGAAGCGUGGCGGCACCUGCCGCCGGUGGUAAAAAAGAUCGGAAGAGCACACGUCU  1.08
7. GGGUCGUAUGCAAAUAAUCGCGUGGAUAUGGCACGCAAGUUUCUACCGGGCACCGUAAAUGUCCGACUGGAGCCGUUCGGGCGGCUAUAAACAGACCUCAGGCCCGAAGCGUGGCGGCACCUGCCGCCGGUGGUAAAAAAGAUCGGAAGAGCACACGUCU  1.09
8. GGGUCGUGGGCGGAUAAUCGCGUGGAUAUGGCACGCAAGUUUCUACCGGGCACCGUAAAUGUCCGACUGGAGCCGUUCGGGCGGCUAUAAACAGACCUCAGGCCCGAAGCGUGGCGGCACCUGCCGCCGGUGGUAAAAAAGAUCGGAAGAGCACACGUCU  1.1
9. GGGUCGGGUGCCCAUAAUCGCGUGGAUAUGGCACGCAAGUUUCUACCGGGCACCGUAAAUGUCCGACUGGAGCCGUUCGGGCGGCUAUAAACAGACCUCAGGCCCGAAGCGUGGCGGCACCUGCCGCCGGUGGUAAAAAAGAUCGGAAGAGCACACGUCU  1.1
10. GGGUCGCGAUAGGAUAAUCGCGUGGAUAUGGCACGCAAGUUUCUACCGGGCACCGUAAAUGUCCGACUGGAGCCGUUCGGGCGGCUAUAAACAGACCUCAGGCCCGAAGCGUGGCGGCACCUGCCGCCGGUGGUAAAAAAGAUCGGAAGAGCACACGUCU  1.11
11. GGGUCGCCUAAAGAUAAUCGCGUGGAUAUGGCACGCAAGUUUCUACCGGGCACCGUAAAUGUCCGACUGGAGCCGUUCGGGCGGCUAUAAACAGACCUCAGGCCCGAAGCGUGGCGGCACCUGCCGCCGGUGGUAAAAAAGAUCGGAAGAGCACACGUCU  1.11
12. GGGUCGCAAAGAAAUAAUCGCGUGGAUAUGGCACGCAAGUUUCUACCGGGCACCGUAAAUGUCCGACUGGAGCCGUUCGGGCGGCUAUAAACAGACCUCAGGCCCGAAGCGUGGCGGCACCUGCCGCCGGUGGUAAAAAAGAUCGGAAGAGCACACGUCU  1.11
13. GGGUCGCGGCCCUAUAAUCGCGUGGAUAUGGCACGCAAGUUUCUACCGGGCACCGUAAAUGUCCGACUGGAGCCGUUCGGGCGGCUAUAAACAGACCUCAGGCCCGAAGCGUGGCGGCACCUGCCGCCGGUGGUAAAAAAGAUCGGAAGAGCACACGUCU  1.11
14. GGGUCGGCCAAAAAUAAUCGCGUGGAUAUGGCACGCAAGUUUCUACCGGGCACCGUAAAUGUCCGACUGGAGCCGUUCGGGCGGCUAUAAACAGACCUCAGGCCCGAAGCGUGGCGGCACCUGCCGCCGGUGGUAAAAAAGAUCGGAAGAGCACACGUCU  1.12
15. GGGUCGCCUGUCGAUAAUCGCGUGGAUAUGGCACGCAAGUUUCUACCGGGCACCGUAAAUGUCCGACUGGAGCCGUUCGGGCGGCUAUAAACAGACCUCAGGCCCGAAGCGUGGCGGCACCUGCCGCCGGUGGUAAAAAAGAUCGGAAGAGCACACGUCU  1.12
16. GGGUCGACAGGCGAUAAUCGCGUGGAUAUGGCACGCAAGUUUCUACCGGGCACCGUAAAUGUCCGACUGGAGCCGUUCGGGCGGCUAUAAACAGACCUCAGGCCCGAAGCGUGGCGGCACCUGCCGCCGGUGGUAAAAAAGAUCGGAAGAGCACACGUCU  1.15
17. GGGUCGCGCGUGCAUAAUCGCGUGGAUAUGGCACGCAAGUUUCUACCGGGCACCGUAAAUGUCCGACUGGAGCCGUUCGGGCGGCUAUAAACAGACCUCAGGCCCGAAGCGUGGCGGCACCUGCCGCCGGUGGUAAAAAAGAUCGGAAGAGCACACGUCU  1.16
18. GGGUCGACUGUUCAUAAUCGCGUGGAUAUGGCACGCAAGUUUCUACCGGGCACCGUAAAUGUCCGACUGGAGCCGUUCGGGCGGCUAUAAACAGACCUCAGGCCCGAAGCGUGGCGGCACCUGCCGCCGGUGGUAAAAAAGAUCGGAAGAGCACACGUCU  1.17
19. GGGUCGUCUCUACAUAAUCGCGUGGAUAUGGCACGCAAGUUUCUACCGGGCACCGUAAAUGUCCGACUGGAGCCGUUCGGGCGGCUAUAAACAGACCUCAGGCCCGAAGCGUGGCGGCACCUGCCGCCGGUGGUAAAAAAGAUCGGAAGAGCACACGUCU  1.19
20. GGGUCGAGUUGGAAUAAUCGCGUGGAUAUGGCACGCAAGUUUCUACCGGGCACCGUAAAUGUCCGACUGGAGCCGUUCGGGCGGCUAUAAACAGACCUCAGGCCCGAAGCGUGGCGGCACCUGCCGCCGGUGGUAAAAAAGAUCGGAAGAGCACACGUCU  1.22
21. GGGUCGUUUUUUAAUAAUCGCGUGGAUAUGGCACGCAAGUUUCUACCGGGCACCGUAAAUGUCCGACUGGAGCCGUUCGGGCGGCUAUAAACAGACCUCAGGCCCGAAGCGUGGCGGCACCUGCCGCCGGUGGUAAAAAAGAUCGGAAGAGCACACGUCU  1.23
22. GGGUCGUAAUCUAAUAAUCGCGUGGAUAUGGCACGCAAGUUUCUACCGGGCACCGUAAAUGUCCGACUGGAGCCGUUCGGGCGGCUAUAAACAGACCUCAGGCCCGAAGCGUGGCGGCACCUGCCGCCGGUGGUAAAAAAGAUCGGAAGAGCACACGUCU  1.23
23. GGGUCGAAGCGUAAUAAUCGCGUGGAUAUGGCACGCAAGUUUCUACCGGGCACCGUAAAUGUCCGACUGGAGCCGUUCGGGCGGCUAUAAACAGACCUCAGGCCCGAAGCGUGGCGGCACCUGCCGCCGGUGGUAAAAAAGAUCGGAAGAGCACACGUCU  1.23
24. GGGUCGCAUGGGCAUAAUCGCGUGGAUAUGGCACGCAAGUUUCUACCGGGCACCGUAAAUGUCCGACUGGAGCCGUUCGGGCGGCUAUAAACAGACCUCAGGCCCGAAGCGUGGCGGCACCUGCCGCCGGUGGUAAAAAAGAUCGGAAGAGCACACGUCU  1.26
25. GGGUCGCAACGUUAUAAUCGCGUGGAUAUGGCACGCAAGUUUCUACCGGGCACCGUAAAUGUCCGACUGGAGCCGUUCGGGCGGCUAUAAACAGACCUCAGGCCCGAAGCGUGGCGGCACCUGCCGCCGGUGGUAAAAAAGAUCGGAAGAGCACACGUCU  1.26
26. GGGUCGCACGUUUAUAAUCGCGUGGAUAUGGCACGCAAGUUUCUACCGGGCACCGUAAAUGUCCGACUGGAGCCGUUCGGGCGGCUAUAAACAGACCUCAGGCCCGAAGCGUGGCGGCACCUGCCGCCGGUGGUAAAAAAGAUCGGAAGAGCACACGUCU  1.26
27. GGGUCGAGACUUUAUAAUCGCGUGGAUAUGGCACGCAAGUUUCUACCGGGCACCGUAAAUGUCCGACUGGAGCCGUUCGGGCGGCUAUAAACAGACCUCAGGCCCGAAGCGUGGCGGCACCUGCCGCCGGUGGUAAAAAAGAUCGGAAGAGCACACGUCU  1.27
28. GGGUCGCGGGGCGAUAAUCGCGUGGAUAUGGCACGCAAGUUUCUACCGGGCACCGUAAAUGUCCGACUGGAGCCGUUCGGGCGGCUAUAAACAGACCUCAGGCCCGAAGCGUGGCGGCACCUGCCGCCGGUGGUAAAAAAGAUCGGAAGAGCACACGUCU  1.28
29. GGGUCGCAGAGUGAUAAUCGCGUGGAUAUGGCACGCAAGUUUCUACCGGGCACCGUAAAUGUCCGACUGGAGCCGUUCGGGCGGCUAUAAACAGACCUCAGGCCCGAAGCGUGGCGGCACCUGCCGCCGGUGGUAAAAAAGAUCGGAAGAGCACACGUCU  1.29
30. GGGUCGACGGCUGAUAAUCGCGUGGAUAUGGCACGCAAGUUUCUACCGGGCACCGUAAAUGUCCGACUGGAGCCGUUCGGGCGGCUAUAAACAGACCUCAGGCCCGAAGCGUGGCGGCACCUGCCGCCGGUGGUAAAAAAGAUCGGAAGAGCACACGUCU  1.29
31. GGGUCGGGGAGAUAUAAUCGCGUGGAUAUGGCACGCAAGUUUCUACCGGGCACCGUAAAUGUCCGACUGGAGCCGUUCGGGCGGCUAUAAACAGACCUCAGGCCCGAAGCGUGGCGGCACCUGCCGCCGGUGGUAAAAAAGAUCGGAAGAGCACACGUCU  1.37
32. GGGUCGGAGUCUCAUAAUCGCGUGGAUAUGGCACGCAAGUUUCUACCGGGCACCGUAAAUGUCCGACUGGAGCCGUUCGGGCGGCUAUAAACAGACCUCAGGCCCGAAGCGUGGCGGCACCUGCCGCCGGUGGUAAAAAAGAUCGGAAGAGCACACGUCU  1.41
33. GGGUCGUUCAUUCAUAAUCGCGUGGAUAUGGCACGCAAGUUUCUACCGGGCACCGUAAAUGUCCGACUGGAGCCGUUCGGGCGGCUAUAAACAGACCUCAGGCCCGAAGCGUGGCGGCACCUGCCGCCGGUGGUAAAAAAGAUCGGAAGAGCACACGUCU  1.6
34. GGGUCGUUAGUAUAUAAUCGCGUGGAUAUGGCACGCAAGUUUCUACCGGGCACCGUAAAUGUCCGACUGGAGCCGUUCGGGCGGCUAUAAACAGACCUCAGGCCCGAAGCGUGGCGGCACCUGCCGCCGGUGGUAAAAAAGAUCGGAAGAGCACACGUCU  1.69
35. GGGUCGAACUGUCAUAAUCGCGUGGAUAUGGCACGCAAGUUUCUACCGGGCACCGUAAAUGUCCGACUGGAGCCGUUCGGGCGGCUAUAAACAGACCUCAGGCCCGAAGCGUGGCGGCACCUGCCGCCGGUGGUAAAAAAGAUCGGAAGAGCACACGUCU  1.71
36. GGGUCGUUAUAUUAUAAUCGCGUGGAUAUGGCACGCAAGUUUCUACCGGGCACCGUAAAUGUCCGACUGGAGCCGUUCGGGCGGCUAUAAACAGACCUCAGGCCCGAAGCGUGGCGGCACCUGCCGCCGGUGGUAAAAAAGAUCGGAAGAGCACACGUCU  1.91
